Experimental findings from the RNAGym collection of RNA variant scans (doi:10.1093/molbev/msab373) are described below.

B1: Azoarcus group I ribozyme (parent)
chain: GUGCCUUGCGCCGGGAAACCACGCAAGGGAUGGUGUCAAAUUCGGCGAAACCUAAGCGCCCGCCCGGGCGUAUGGCAACGCCGAGCCAAGCUUCGGCGCCUGCGCCGAUGAAGGUGUAGAGACUAGACGGCACCCACCUAAGGCAAACGCUAUGGUGAAGGCAUAGUCCAGGGAGUGGCGAAAGUCACACAAACCGG

In this data set the parent is B1. The experiment in a line: reverse-splicing fitness (ratio to wild type); higher = more active; in vitro selection; Mg2+ level not given. In outline:
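An in vitro group I ribozyme library with randomized positions was T7-transcribed and gel-purified. In triplicate, 10 pmol RNA in EPPS pH 7.5 was reacted with 50 pmoles of a 30-nt RNA substrate for 1 h at 37 °C across several added MgCl2 levels (1–48 mM), then stopped with EDTA. Products were reverse transcribed from a substrate-complementary primer, PCR-amplified and sequenced (HiSeq 4000). Fitness is a variant's read proportion after selection over that before, normalised to wild type.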
In the case of GUGCCUUGCGCCGGGAAACCACGCAAGGGAUGGUGUCAAAUUCGGCGAAACCUAAGCGCCCGCCCGGGCGUAUGGCAACGCGGAGCCAAGCUUCGGCGCCUGCGCCGAUGCAGGUGUAGGGACUAGACGGCACCCACCUAAGGCCAACGGUAUGGUGAAGGCAUAGUCAAGGGAGAGGCGAAAGUCACACAAACCGG, the reverse-splicing fitness came to 0.00812.
For GUGCCUUGCGCCGGGAAACCACGCAAGGGAUGGUGUCAAAUUCGGCGAAACCUAAGCGCCCGCCCGGGCGUAUGGCAACGCGGAGCCAAGCUUCGGCGCCUGCGCCGAUGCAGGUGUAGGGACUAGACGGCACCCACCUAAGGCCAACGGUAUGGUGAAGGCAUAGUCAAGGGAGCGGCGAAAGUCACACAAACCGG, the reverse-splicing fitness stood at 0.00738.
As to GUGCCUUGCGCCGGGAAACCACGCAAGGGAUGGUGUCAAAUUCGGCGAAACCUAAGCGCCCGCCCGGGCGUAUGGCAACGCGGAGCCAAGCUUCGGCGCCUGCGCCGAUGCAGGUGUAGGGACUAGACGGCACCCACCUAAGGCCAACGGUAUGGUGAAGGCAUAGUCAAGGGAGGGGCGAAAGUCACACAAACCGG, the reverse-splicing fitness came out at 0.005.
On to GUGCCUUGCGCCGGGAAACCACGCAAGGGAUGGUGUCAAAUUCGGCGAAACCUAAGCGCCCGCCCGGGCGUAUGGCAACGCGGAGCCAAGCUUCGGCGCCUGCGCCGAUGCAGGUGUAGGGACUAGACGGCACCCACCUAAGGCCAACGGUAUGGUGAAGGCAUAGUCGAGGGAGCGGCGAAAGUCACACAAACCGG, for which the reverse-splicing fitness was found to be 0.00726.
As to GUGCCUUGCGCCGGGAAACCACGCAAGGGAUGGUGUCAAAUUCGGCGAAACCUAAGCGCCCGCCCGGGCGUAUGGCAACGCGGAGCCAAGCUUCGGCGCCUGCGCCGAUGCAGGUGUAGGGACUAGACGGCACCCACCUAAGGCCAACGGUAUGGUGAAGGCAUAGUCGAGGGAGGGGCGAAAGUCACACAAACCGG, the reverse-splicing fitness was 0.00499.
Next, GUGCCUUGCGCCGGGAAACCACGCAAGGGAUGGUGUCAAAUUCGGCGAAACCUAAGCGCCCGCCCGGGCGUAUGGCAACGCGGAGCCAAGCUUCGGCGCCUGCGCCGAUGCAGGUGUAGGGACUAGACGGCACCCACCUAAGGCCAACGGUAUGGUGAAGGCAUAGUCGAGGGAGAGGCGAAAGUCACACAAACCGG: 0.00837.
Next, GUGCCUUGCGCCGGGAAACCACGCAAGGGAUGGUGUCAAAUUCGGCGAAACCUAAGCGCCCGCCCGGGCGUAUGGCAACGCGGAGCCAAGCUUCGGCGCCUGCGCCGAUGCAGGUGUAGGGACUAGACGGCACCCACCUAAGGCCAACGUUAUGGUGAAGGCAUAGUCAAGGGAGCGGCGAAAGUCACACAAACCGG: 0.00666; GUGCCUUGCGCCGGGAAACCACGCAAGGGAUGGUGUCAAAUUCGGCGAAACCUAAGCGCCCGCCCGGGCGUAUGGCAACGCGGAGCCAAGCUUCGGCGCCUGCGCCGAUGCAGGUGUAGGGACUAGACGGCACCCACCUAAGGCCAACGUUAUGGUGAAGGCAUAGUCAAGGGAGAGGCGAAAGUCACACAAACCGG: 0.0113; GUGCCUUGCGCCGGGAAACCACGCAAGGGAUGGUGUCAAAUUCGGCGAAACCUAAGCGCCCGCCCGGGCGUAUGGCAACGCGGAGCCAAGCUUCGGCGCCUGCGCCGAUGCAGGUGUAGGGACUAGACGGCACCCACCUAAGGCCAACGUUAUGGUGAAGGCAUAGUCAAGGGAGGGGCGAAAGUCACACAAACCGG: 0.00557.
As for GUGCCUUGCGCCGGGAAACCACGCAAGGGAUGGUGUCAAAUUCGGCGAAACCUAAGCGCCCGCCCGGGCGUAUGGCAACGCGGAGCCAAGCUUCGGCGCCUGCGCCGAUGCAGGUGUAGGGACUAGACGGCACCCACCUAAGGCCAACGUUAUGGUGAAGGCAUAGUCGAGGGAGCGGCGAAAGUCACACAAACCGG, the reverse-splicing fitness was 0.0133.
With GUGCCUUGCGCCGGGAAACCACGCAAGGGAUGGUGUCAAAUUCGGCGAAACCUAAGCGCCCGCCCGGGCGUAUGGCAACGCGGAGCCAAGCUUCGGCGCCUGCGCCGAUGCAGGUGUAGGGACUAGACGGCACCCACCUAAGGCCAACGUUAUGGUGAAGGCAUAGUCGAGGGAGAGGCGAAAGUCACACAAACCGG, the reverse-splicing fitness was 0.0216.
Next, GUGCCUUGCGCCGGGAAACCACGCAAGGGAUGGUGUCAAAUUCGGCGAAACCUAAGCGCCCGCCCGGGCGUAUGGCAACGCGGAGCCAAGCUUCGGCGCCUGCGCCGAUGCAGGUGUAGGGACUAGACGGCACCCACCUAAGGCCAACGGUAUGGUGAAGGCAUAGUCCAGGGAGUGGCGAAAGUCACACAAACCGG: 0.00634; GUGCCUUGCGCCGGGAAACCACGCAAGGGAUGGUGUCAAAUUCGGCGAAACCUAAGCGCCCGCCCGGGCGUAUGGCAACGCGGAGCCAAGCUUCGGCGCCUGCGCCGAUGCAGGUGUAGGGACUAGACGGCACCCACCUAAGGCCAACGUUAUGGUGAAGGCAUAGUCCAGGGAGUGGCGAAAGUCACACAAACCGG: 0.00925; GUGCCUUGCGCCGGGAAACCACGCAAGGGAUGGUGUCAAAUUCGGCGAAACCUAAGCGCCCGCCCGGGCGUAUGGCAACGCGGAGCCAAGCUUCGGCGCCUGCGCCGAUGCAGGUGUAGGGACUAGACGGCACCCACCUAAGGCCAACGAUAUGGUGAAGGCAUAGUCCAGGGAGGGGCGAAAGUCACACAAACCGG: 0.00463.
Regarding GUGCCUUGCGCCGGGAAACCACGCAAGGGAUGGUGUCAAAUUCGGCGAAACCUAAGCGCCCGCCCGGGCGUAUGGCAACGCGGAGCCAAGCUUCGGCGCCUGCGCCGAUGCAGGUGUAGGGACUAGACGGCACCCACCUAAGGCCAACGAUAUGGUGAAGGCAUAGUCCAGGGAGCGGCGAAAGUCACACAAACCGG, the reverse-splicing fitness was 0.011.
Turning to GUGCCUUGCGCCGGGAAACCACGCAAGGGAUGGUGUCAAAUUCGGCGAAACCUAAGCGCCCGCCCGGGCGUAUGGCAACGCGGAGCCAAGCUUCGGCGCCUGCGCCGAUGCAGGUGUAGGGACUAGACGGCACCCACCUAAGGCCAACGAUAUGGUGAAGGCAUAGUCCAGGGAGAGGCGAAAGUCACACAAACCGG, the reverse-splicing fitness stood at 0.0121.
As for GUGCCUUGCGCCGGGAAACCACGCAAGGGAUGGUGUCAAAUUCGGCGAAACCUAAGCGCCCGCCCGGGCGUAUGGCAACGCGGAGCCAAGCUUCGGCGCCUGCGCCGAUGCAGGUGUAGGGACUAGACGGCACCCACCUAAGGCCAACGGUAUGGUGAAGGCAUAGUCUAGGGAGCGGCGAAAGUCACACAAACCGG, the reverse-splicing fitness was found to be 0.0124.
The value for GUGCCUUGCGCCGGGAAACCACGCAAGGGAUGGUGUCAAAUUCGGCGAAACCUAAGCGCCCGCCCGGGCGUAUGGCAACGCGGAGCCAAGCUUCGGCGCCUGCGCCGAUGCAGGUGUAGGGACUAGACGGCACCCACCUAAGGCCAACGGUAUGGUGAAGGCAUAGUCUAGGGAGAGGCGAAAGUCACACAAACCGG was 0.00907.
Regarding GUGCCUUGCGCCGGGAAACCACGCAAGGGAUGGUGUCAAAUUCGGCGAAACCUAAGCGCCCGCCCGGGCGUAUGGCAACGCGGAGCCAAGCUUCGGCGCCUGCGCCGAUGCAGGUGUAGGGACUAGACGGCACCCACCUAAGGCCAACGGUAUGGUGAAGGCAUAGUCUAGGGAGGGGCGAAAGUCACACAAACCGG, the reverse-splicing fitness was 0.00513.
Take GUGCCUUGCGCCGGGAAACCACGCAAGGGAUGGUGUCAAAUUCGGCGAAACCUAAGCGCCCGCCCGGGCGUAUGGCAACGCGGAGCCAAGCUUCGGCGCCUGCGCCGAUGCAGGUGUAGGGACUAGACGGCACCCACCUAAGGCCAACGUUAUGGUGAAGGCAUAGUCAAGGGAGUGGCGAAAGUCACACAAACCGG: the reverse-splicing fitness came out at 0.00816.
The value for GUGCCUUGCGCCGGGAAACCACGCAAGGGAUGGUGUCAAAUUCGGCGAAACCUAAGCGCCCGCCCGGGCGUAUGGCAACGCGGAGCCAAGCUUCGGCGCCUGCGCCGAUGCAGGUGUAGGGACUAGACGGCACCCACCUAAGGCCAACGUUAUGGUGAAGGCAUAGUCGAGGGAGUGGCGAAAGUCACACAAACCGG was 0.00885.
The value for GUGCCUUGCGCCGGGAAACCACGCAAGGGAUGGUGUCAAAUUCGGCGAAACCUAAGCGCCCGCCCGGGCGUAUGGCAACGCGGAGCCAAGCUUCGGCGCCUGCGCCGAUGCAGGUGUAGGGACUAGACGGCACCCACCUAAGGCCAACGGUAUGGUGAAGGCAUAGUCCAGGGAGCGGCGAAAGUCACACAAACCGG was 0.0129; that for GUGCCUUGCGCCGGGAAACCACGCAAGGGAUGGUGUCAAAUUCGGCGAAACCUAAGCGCCCGCCCGGGCGUAUGGCAACGCGGAGCCAAGCUUCGGCGCCUGCGCCGAUGCAGGUGUAGGGACUAGACGGCACCCACCUAAGGCCAACGGUAUGGUGAAGGCAUAGUCCAGGGAGGGGCGAAAGUCACACAAACCGG was 0.00269.
The value for GUGCCUUGCGCCGGGAAACCACGCAAGGGAUGGUGUCAAAUUCGGCGAAACCUAAGCGCCCGCCCGGGCGUAUGGCAACGCGGAGCCAAGCUUCGGCGCCUGCGCCGAUGCAGGUGUAGGGACUAGACGGCACCCACCUAAGGCCAACGGUAUGGUGAAGGCAUAGUCCAGGGAGAGGCGAAAGUCACACAAACCGG was 0.00787.
Regarding GUGCCUUGCGCCGGGAAACCACGCAAGGGAUGGUGUCAAAUUCGGCGAAACCUAAGCGCCCGCCCGGGCGUAUGGCAACGCGGAGCCAAGCUUCGGCGCCUGCGCCGAUGCAGGUGUAGGGACUAGACGGCACCCACCUAAGGCCAACGGUAUGGUGAAGGCAUAGUCGAGGGAGUGGCGAAAGUCACACAAACCGG, the reverse-splicing fitness stood at 0.00722.
Next, GUGCCUUGCGCCGGGAAACCACGCAAGGGAUGGUGUCAAAUUCGGCGAAACCUAAGCGCCCGCCCGGGCGUAUGGCAACGCGGAGCCAAGCUUCGGCGCCUGCGCCGAUGCAGGUGUAGGGACUAGACGGCACCCACCUAAGGCCAACGGUAUGGUGAAGGCAUAGUCUAGGGAGUGGCGAAAGUCACACAAACCGG: 0.00721.
Next, GUGCCUUGCGCCGGGAAACCACGCAAGGGAUGGUGUCAAAUUCGGCGAAACCUAAGCGCCCGCCCGGGCGUAUGGCAACGCGGAGCCAAGCUUCGGCGCCUGCGCCGAUGCAGGUGUAGGGACUAGACGGCACCCACCUAAGGCCAACGGUAUGGUGAAGGCAUAGUCAAGGGAGUGGCGAAAGUCACACAAACCGG: 0.0084.
For the variant GUGCCUUGCGCCGGGAAACCACGCAAGGGAUGGUGUCAAAUUCGGCGAAACCUAAGCGCCCGCCCGGGCGUAUGGCAACGCGGAGCCAAGCUUCGGCGCCUGCGCCGAUGCAGGUGUAGGGACUAGACGGCACCCACCUAAGGCCAACGAUAUGGUGAAGGCAUAGUCUAGGGAGAGGCGAAAGUCACACAAACCGG, the reverse-splicing fitness came to 0.0151.
For GUGCCUUGCGCCGGGAAACCACGCAAGGGAUGGUGUCAAAUUCGGCGAAACCUAAGCGCCCGCCCGGGCGUAUGGCAACGCGGAGCCAAGCUUCGGCGCCUGCGCCGAUGCAGGUGUAGGGACUAGACGGCACCCACCUAAGGCCAACGAUAUGGUGAAGGCAUAGUCUAGGGAGGGGCGAAAGUCACACAAACCGG, the reverse-splicing fitness came to 0.0047.
Take GUGCCUUGCGCCGGGAAACCACGCAAGGGAUGGUGUCAAAUUCGGCGAAACCUAAGCGCCCGCCCGGGCGUAUGGCAACGCGGAGCCAAGCUUCGGCGCCUGCGCCGAUGCAGGUGUAGGGACUAGACGGCACCCACCUAAGGCCAACGAUAUGGUGAAGGCAUAGUCUAGGGAGCGGCGAAAGUCACACAAACCGG: the reverse-splicing fitness turned out to be 0.00999.
